Results: publication PMC11078399

Molecular target: T1, Fzo1 (yeast mitofusin), wild type (S. cerevisiae) (UniProt P38297)
T1 sequence: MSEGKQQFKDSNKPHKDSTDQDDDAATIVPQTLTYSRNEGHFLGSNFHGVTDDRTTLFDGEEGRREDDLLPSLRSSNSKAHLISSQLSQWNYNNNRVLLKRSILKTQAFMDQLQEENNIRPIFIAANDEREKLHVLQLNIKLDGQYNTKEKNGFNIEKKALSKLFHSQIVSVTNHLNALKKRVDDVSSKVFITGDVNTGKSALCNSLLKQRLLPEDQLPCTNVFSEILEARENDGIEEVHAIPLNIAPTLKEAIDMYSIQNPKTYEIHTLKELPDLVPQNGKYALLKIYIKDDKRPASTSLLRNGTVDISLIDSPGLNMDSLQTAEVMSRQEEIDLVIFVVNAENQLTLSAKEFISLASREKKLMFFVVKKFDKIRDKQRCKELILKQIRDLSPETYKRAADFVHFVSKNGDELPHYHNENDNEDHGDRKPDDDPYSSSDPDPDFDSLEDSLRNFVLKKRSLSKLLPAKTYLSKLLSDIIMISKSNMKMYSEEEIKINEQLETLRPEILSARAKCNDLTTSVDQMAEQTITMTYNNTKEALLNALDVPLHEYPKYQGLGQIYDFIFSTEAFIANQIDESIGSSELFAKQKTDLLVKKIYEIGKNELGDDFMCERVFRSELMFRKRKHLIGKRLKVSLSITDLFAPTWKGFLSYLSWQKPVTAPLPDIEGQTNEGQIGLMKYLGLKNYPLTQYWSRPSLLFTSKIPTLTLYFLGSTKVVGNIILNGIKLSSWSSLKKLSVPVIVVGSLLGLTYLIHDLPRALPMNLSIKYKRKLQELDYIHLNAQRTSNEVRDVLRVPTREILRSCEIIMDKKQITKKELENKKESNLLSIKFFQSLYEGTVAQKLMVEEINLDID

ex vivo PerMit contact assay with mitochondria from pex34Δ cells: decrease of specific mitochondrial attachment to peroxisome beads with FZO1 S201N against WT FZO1 mitochondria: 17%
B1: Fzo1 S201N (GTPase domain mutant) (natural protein)
chain: MSEGKQQFKDSNKPHKDSTDQDDDAATIVPQTLTYSRNEGHFLGSNFHGVTDDRTTLFDGEEGRREDDLLPSLRSSNSKAHLISSQLSQWNYNNNRVLLKRSILKTQAFMDQLQEENNIRPIFIAANDEREKLHVLQLNIKLDGQYNTKEKNGFNIEKKALSKLFHSQIVSVTNHLNALKKRVDDVSSKVFITGDVNTGKNALCNSLLKQRLLPEDQLPCTNVFSEILEARENDGIEEVHAIPLNIAPTLKEAIDMYSIQNPKTYEIHTLKELPDLVPQNGKYALLKIYIKDDKRPASTSLLRNGTVDISLIDSPGLNMDSLQTAEVMSRQEEIDLVIFVVNAENQLTLSAKEFISLASREKKLMFFVVKKFDKIRDKQRCKELILKQIRDLSPETYKRAADFVHFVSKNGDELPHYHNENDNEDHGDRKPDDDPYSSSDPDPDFDSLEDSLRNFVLKKRSLSKLLPAKTYLSKLLSDIIMISKSNMKMYSEEEIKINEQLETLRPEILSARAKCNDLTTSVDQMAEQTITMTYNNTKEALLNALDVPLHEYPKYQGLGQIYDFIFSTEAFIANQIDESIGSSELFAKQKTDLLVKKIYEIGKNELGDDFMCERVFRSELMFRKRKHLIGKRLKVSLSITDLFAPTWKGFLSYLSWQKPVTAPLPDIEGQTNEGQIGLMKYLGLKNYPLTQYWSRPSLLFTSKIPTLTLYFLGSTKVVGNIILNGIKLSSWSSLKKLSVPVIVVGSLLGLTYLIHDLPRALPMNLSIKYKRKLQELDYIHLNAQRTSNEVRDVLRVPTREILRSCEIIMDKKQITKKELENKKESNLLSIKFFQSLYEGTVAQKLMVEEINLDID
